Test results taken from patent JP2003261460A.

Molecular target: Flt-1 (VEGFR-1, fms-like tyrosine kinase-1) of wild-type mice (WF) (mouse) (UniProt P35969)
Assay: cell-based or functional assay

Sequence of UniProt P35969 (P35969 23-1333 S1181G): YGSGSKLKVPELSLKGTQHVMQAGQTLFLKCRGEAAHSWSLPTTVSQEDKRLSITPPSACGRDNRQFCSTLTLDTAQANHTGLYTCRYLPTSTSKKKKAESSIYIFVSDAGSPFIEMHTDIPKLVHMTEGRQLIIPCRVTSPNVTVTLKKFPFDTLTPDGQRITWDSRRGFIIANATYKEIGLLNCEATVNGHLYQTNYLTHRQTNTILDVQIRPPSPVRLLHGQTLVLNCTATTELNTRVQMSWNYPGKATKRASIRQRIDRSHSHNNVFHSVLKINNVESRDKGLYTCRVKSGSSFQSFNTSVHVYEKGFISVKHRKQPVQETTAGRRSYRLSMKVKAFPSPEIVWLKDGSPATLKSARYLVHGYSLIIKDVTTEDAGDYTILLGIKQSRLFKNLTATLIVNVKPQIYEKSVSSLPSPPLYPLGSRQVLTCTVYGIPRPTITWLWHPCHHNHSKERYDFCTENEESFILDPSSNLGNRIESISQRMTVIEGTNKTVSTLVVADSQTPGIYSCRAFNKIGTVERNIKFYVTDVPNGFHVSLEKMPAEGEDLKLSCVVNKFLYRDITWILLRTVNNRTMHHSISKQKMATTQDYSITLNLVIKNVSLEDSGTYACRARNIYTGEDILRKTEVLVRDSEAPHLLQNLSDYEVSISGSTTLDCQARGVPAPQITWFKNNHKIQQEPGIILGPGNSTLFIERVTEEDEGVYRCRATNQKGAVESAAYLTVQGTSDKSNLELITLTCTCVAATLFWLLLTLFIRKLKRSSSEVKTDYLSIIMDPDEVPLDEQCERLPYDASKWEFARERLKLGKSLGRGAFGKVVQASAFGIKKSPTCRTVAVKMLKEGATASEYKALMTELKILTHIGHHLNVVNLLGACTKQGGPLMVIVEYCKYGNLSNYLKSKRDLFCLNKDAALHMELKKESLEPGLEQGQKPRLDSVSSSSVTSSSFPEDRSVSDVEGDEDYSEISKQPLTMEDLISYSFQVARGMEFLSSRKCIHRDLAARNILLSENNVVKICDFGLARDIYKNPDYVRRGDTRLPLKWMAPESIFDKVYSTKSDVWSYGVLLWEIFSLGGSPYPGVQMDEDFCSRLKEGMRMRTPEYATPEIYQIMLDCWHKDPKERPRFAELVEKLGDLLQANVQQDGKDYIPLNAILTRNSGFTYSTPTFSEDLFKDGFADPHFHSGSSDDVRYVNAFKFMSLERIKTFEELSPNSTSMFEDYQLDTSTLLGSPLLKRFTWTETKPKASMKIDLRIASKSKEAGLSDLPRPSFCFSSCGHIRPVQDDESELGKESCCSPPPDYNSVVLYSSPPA

MMP-9誘導 (肺組織培養, ゼラチン基質ザイモグラフィー): 40 ng/mL
Substance: VEGF (R&D社製) (ligand)
